Source: US20260234121A1, “DERIVATIVES, IMMUNOGENS, AND ANTIBODIES AND USE OF THE SAME IN DETECTION OF ECSTASY-CLASS COMPOUNDS” (Siemens Healthcare Diagnostics Inc., priority 2023, published 2026)

Legend:
E1-OVA (55) = experiment: ELISA binding of hybridoma supernatant to E1-OVA (55) coated plates, without inhibitor; conditions: hybridoma supernatant mixed with PBS alone
Procedure: All ELISA steps were performed at rt. Wells of a Nunc Maxi-Sorp™ flat-bottom ELISA plates (ThermoFisher Scientific, Waltham, MA) were coated with 50 μL E1-OVA (55), E2-OVA (65), and E3-OVA (72) at a concentration of 1 μg/mL in PBS for 1 h. The plates were flicked dried and remaining binding sites were blocked with 200 μL per well of blocking solution (0.5% casein, 0.05% (v/v) Tween 20 in PBS) for one hour. Plates were washed six times with MilliQ water containing 0.05% (v/v) Tween 20 on Biotek 405 LS plate washer equipped with microplate Biostacker 3 (Biotek, Winooski, VT). 50 μL of serially diluted antibody samples (serial dilutions of serum, hybridoma supernatant, or monoclonal antibodies in PBS) were added to each well and incubated for one hour. Unbound antibodies were removed by washing as described above, and 50 μL of secondary goat anti-rabbit IgG HRP or goat anti-mouse IgG (Fc)-HRP conjugate (ThermoFisher Scientific, USA), diluted 1:3,000 in the blocking solution was added to each well for detection bound rabbit or mouse antibody, respectively. Plates were incubated for one hour, washed and 100 μL of TMB substrate (Moss, Pasadena, MD) was added for 15 min to determine bound peroxidase. Optical density (OD) of the samples at 650 nm was measured using an ELISA plate reader (Molecular Devices LLC., San Jose, CA). The titer of each serum sample was designated as the maximum dilution that yielded at least twice the absorbance of the same dilution of the nonimmune control serum.
(§1) The supernatants were screened in a competitive ELISA for the presence of anti-ecstasy compound monoclonal antibodies (mAbs) as follows. 25 μL of the hybridoma supernatant was mixed with equal volume of PBS alone or containing 20 μg/mL inhibitor (MDA or MDMA) were incubated for 1 h in the wells of E1-OVA (55) coated ELISA plates. The plates were washed and the presence of bound mAbs were detected using goat anti-mouse IgG (Fc)-HRP conjugate and TMB substrate as described above. The level of inhibition of mAb/E1-OVA (55) binding in the presence of the inhibitor was estimated using a Percent (%) Inhibition calculated by the below formula:
[formula] • where “OD650 nm w/o Inhibitor” is the binding response of the antibody sample diluted in PBS alone (with no inhibitor), and the “OD650 nm with Inhibitor” is the binding response of the same antibody sample in the presence of 10 μg/mL of inhibitor (i.e., MDA or MDMA). […]

[1] = Competitive ELISA screening of hybridoma supernatants on E1-OVA (55), inhibitor MDA; assay type: binding
Procedure: (§2) Competitive ELISA was used to assess the presence of anti-Ecstasy-class antibodies in animal sera, hybridoma supernatants, and monoclonal antibody (mAb) samples as well as to estimate the level of antibody cross reactivity to amphetamine (Amph) and methamphetamine (mAmph). Antisera and antibody samples were used at the dilution giving a response of about OD=1 at 650 nm (OD650 nm) in an indirect ELISA. Hybridoma supernatants were diluted 1:2 in PBS. (±)-MDMA, (±)-MDA, (±)-amphetamine, and (±)-methamphetamine were used as inhibitors (Cerilliant Corporation, Round Rock, TX). Microtiter ELISA plates were coated and blocked as described above for indirect ELISA. The inhibitors were serially diluted in PBS. 25 μL of the diluted inhibitor was mixed with 25 μL of fixed appropriate antiserum or antibody sample dilution. The mixture was incubated over the E1-OVA (55) solid phase for 1 h. The plates were washed as described above and the bound antibodies were detected with anti-rabbit or anti-mouse IgG HRP-conjugates and TMB substrate as described above.
as §1
(§3) [formula] • where “OD650 nm w/o Inhibitor” is the binding response of the antibody sample diluted in PBS alone (with no inhibitor), and the “OD650 nm with Inhibitor” is the binding response of the same antibody sample in the presence of 10 μg/mL of inhibitor (i.e., MDA or MDMA).

[2] = Competitive ELISA screening of hybridoma supernatants on E1-OVA (55), inhibitor MDMA; assay type: binding
Procedure: as §2, §1, §3

[3] = Prototype EMIT ecstasy assay, cross-reactivity with amphetamine; assay type: biochemical; conditions: conjugate Compound 58; negative urine pool
[4] = Prototype EMIT ecstasy assay, cross-reactivity with methamphetamine; assay type: biochemical; conditions: conjugate Compound 58; negative urine pool
[5] = Competitive ELISA of purified antibodies on E1-OVA (55), MDMA and MDA reactivity; assay type: binding; conditions: 10,000-0.1 ng/mL range of drug concentration
Procedure: as §2
(§4) The anti-ecstasy class mAbs were purified from clarified and filtered hybridoma culture supernatants on a recombinant Protein A Sepharose Fast Flow (GE Life Sciences, Boston USA), dialyzed against PBS containing 0.02% sodium azide and stored at 4° C. The purified mAbs were tested for MDA and MDMA reactivity as well as amphetamine (Amph) and methamphetamine (mAmph) cross reactivity in a competitive assay.

[6] = Competitive ELISA of purified antibodies on E1-OVA (55), amphetamine and methamphetamine cross reactivity; assay type: binding
Procedure: as §2, §4

[7] = inhibition of mAb/E1-OVA (55) binding

B1: 178K 2B7 mAb: mouse monoclonal antibody raised against E1-KLH (56); IgG2b, κ; heavy chain SEQ ID NO 87, light chain SEQ ID NO 111 (antibody)
heavy: MNFGLSLIFLALILKGVQCEVQLVESGGDLVRPGGSLKLSCASSGFIFSNYVMSWVRQTPDKRLEWVATINSGGRFTYYPDSVKGRFTISRDNAKNTLFLQMNSLKPEDTAIYYCAGGNNLDYWGQGTTLTVSSAKTTPPSVYPLAPGCGDTTGSSVTLGCLVKGYFPESVTVTWNSGSLSSSVHTFPALLQSGLYTMSSSVTVPSSTWLSQTVTCSVAHPASSTTVDKKLEPSGPISTIKPCPPCKECHKCPAPNLEGGPSVFIFPPNIKDVLMISLTPKVTCVVVDVSEDDPDVQISWFVNNVEVHTAQTQTHREDYNSTIRVVSALPIQHQDWMSGKEFKCKVNNKDLPSPIERTISKIKGLVRAPQVYILPPPAEQLSRKDVSLTCLVVGFNPGDISVEWTSNGHTEENYKDTAPILDSDGSYFIYSKLNMKTSKWEKTDSFSCNVRHEGLKNNYLKKTISRSPGK
light: MRFSAQLLGLLVLWIPGSTADIVMTQAEFSNPVTLGTSASISCRSSKSLLQRSGITYLYWYLQKPGQSPQLLIYRMSNLASGVPDRFSSSGSGTDFTLRISRVEAEDVGVYYCGQDMELPYTFGGGTKLEIKRADAAPTVSIFPPSSEQLTSGGASVVCFLNNFYPKDINVKWKIDGSERQNGVLNSWTDQDSKDSTYSMSSTLTLTKDEYERHNSYTCEATHKTSTSPIVKSFNRNEC
In the case of B1, the “E1-OVA (55) Binding, OD650 nm w/o inhib” value (E1-OVA (55)) is reported as 3.497 OD650 nm, the “E1-OVA (55) Binding, OD650 nm +MDA” value ([1]; hybridoma supernatant in the presence of 10 μg/mL MDA) is reported as 0.429 OD650 nm and the “% Inhibition by 10 μg/mL of MDA” value [1, 7] is reported as 88%. For the same molecule, the “E1-OVA (55) Binding, OD650 nm +MDMA” value ([2]; hybridoma supernatant in the presence of 10 μg/mL MDMA) was 0.374 OD650 nm, the “% Inhibition by 10 μg/mL of MDMA” value [2, 7] was 89% and the “Concentrations (μg/mL) of Structurally Related Compounds Equivalent to 500 ng/mL MDMA Cutoffs, (+/−) Amph” value [3] was 40 to 45 µg/mL. For the same molecule, the “Concentrations (μg/mL) of Structurally Related Compounds Equivalent to 500 ng/mL MDMA Cutoffs, (+/−) mAmph” value [4] was 50 to 60 µg/mL, the “relative sensitivity to MDMA and MDA in competitive ELISA” value [5] was “bind MDMA stronger than MDA” and the “cross reactivity in the presence of 1,000 ng/ml of Amph or mAmph” value [6] was “do not show any significant cross reactivity”.
